# Biological target: PU.1 (PU pECE) (Mus musculus) (UniProt P17433)
# Assay: cell_activity
# Settings: 8 copies upstream of TK-CAT in HeLa; 1 copy 3.5-3.6 fold, 4 copies 3.9-4.3 fold
substance,measurement,value
PU-1 (SV40 enhancer PU box),activity,18.3 fold

# From US5580958
